This data set addresses T1, Nsp2Cas9 (Neisseria sp. WF04, UniProt A0A4Y9GBC9).
T1 sequence: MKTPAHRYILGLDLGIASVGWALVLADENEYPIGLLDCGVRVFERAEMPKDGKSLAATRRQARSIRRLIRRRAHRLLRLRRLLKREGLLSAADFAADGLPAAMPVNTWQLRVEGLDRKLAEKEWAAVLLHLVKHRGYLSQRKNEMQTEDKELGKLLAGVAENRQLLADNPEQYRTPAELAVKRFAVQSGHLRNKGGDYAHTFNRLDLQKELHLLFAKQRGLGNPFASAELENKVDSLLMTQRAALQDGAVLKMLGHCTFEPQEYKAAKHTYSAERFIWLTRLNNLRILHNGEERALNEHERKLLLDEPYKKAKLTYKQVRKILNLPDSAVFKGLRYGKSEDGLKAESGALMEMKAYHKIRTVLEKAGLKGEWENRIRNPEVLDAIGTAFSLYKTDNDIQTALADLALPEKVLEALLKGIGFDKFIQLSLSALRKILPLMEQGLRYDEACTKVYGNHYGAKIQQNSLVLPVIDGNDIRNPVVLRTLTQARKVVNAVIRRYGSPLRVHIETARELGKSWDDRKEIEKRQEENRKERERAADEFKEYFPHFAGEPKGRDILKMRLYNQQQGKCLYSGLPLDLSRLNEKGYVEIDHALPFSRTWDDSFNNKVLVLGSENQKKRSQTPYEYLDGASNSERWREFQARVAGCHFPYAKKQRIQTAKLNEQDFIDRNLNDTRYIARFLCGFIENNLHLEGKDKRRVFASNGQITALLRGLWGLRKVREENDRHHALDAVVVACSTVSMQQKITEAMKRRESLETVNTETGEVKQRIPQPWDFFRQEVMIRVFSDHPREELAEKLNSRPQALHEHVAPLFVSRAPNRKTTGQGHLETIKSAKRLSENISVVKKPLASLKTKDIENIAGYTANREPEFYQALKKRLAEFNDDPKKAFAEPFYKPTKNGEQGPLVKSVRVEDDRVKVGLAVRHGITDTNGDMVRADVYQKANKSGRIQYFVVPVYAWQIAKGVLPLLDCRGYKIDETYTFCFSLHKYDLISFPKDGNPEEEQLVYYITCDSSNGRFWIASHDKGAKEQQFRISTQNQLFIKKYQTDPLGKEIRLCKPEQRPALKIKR
Description: HEK293T cells. The note with it: tags: NLS and HA tags, kept.

This is an account of results in publication PMC9433092, “Closely related type II-C Cas9 orthologs recognize diverse PAMs”.

Changes are numbered by the printed parent chain.

B1: EMX1 E1 (mixed)
RNA: GAAUGUGGUGCUUGAGAAGUGGAGUUGUAGCUCCCUUUCUCAUUUCGGAAACGAAAUGAGAACCGUUGCUACAAUAAGGCCGUCUGAAAAGAUGUGCCGCAACGCUCUGCCCCUUAAAGCUUCUGCUUUAAGGGGCAUCGUUUAUUUUUUU
DNA 1: AATGTGGTGCTTGAGAAGTGGATGGCCCAA
DNA 2: TTGGGCCATCCACTTCTCAAGCACCACATT
B1 displayed an indel frequency of 7.8 % indels.

B2: AAVS1 A41 (mixed)
RNA: GAGGACUGCAUGGGUCAGCACAGGUUGUAGCUCCCUUUCUCAUUUCGGAAACGAAAUGAGAACCGUUGCUACAAUAAGGCCGUCUGAAAAGAUGUGCCGCAACGCUCUGCCCCUUAAAGCUUCUGCUUUAAGGGGCAUCGUUUAUUUUUUU
DNA 1: AGGACTGCATGGGTCAGCACAGGCTGCCAA
DNA 2: TTGGCAGCCTGTGCTGACCCATGCAGTCCT
As to B2, the indel frequency came out at 10.8 % indels.

B3: AAVS1 A3 (mixed)
RNA: GCAGCGCAAAGUGACAAUGGCCGUUGUAGCUCCCUUUCUCAUUUCGGAAACGAAAUGAGAACCGUUGCUACAAUAAGGCCGUCUGAAAAGAUGUGCCGCAACGCUCUGCCCCUUAAAGCUUCUGCUUUAAGGGGCAUCGUUUAUUUUUUU
DNA 1: GCAGCGCAAAGTGACAATGGCCAGGGCC
DNA 2: GGCCCTGGCCATTGTCACTTTGCGCTGC
In the case of B3, the indel frequency worked out at 7.81 % indels.

B4: AAVS1 A10 (mixed)
RNA: GGGUCUGAGGGUGGAGGGACUGGUUGUAGCUCCCUUUCUCAUUUCGGAAACGAAAUGAGAACCGUUGCUACAAUAAGGCCGUCUGAAAAGAUGUGCCGCAACGCUCUGCCCCUUAAAGCUUCUGCUUUAAGGGGCAUCGUUUAUUUUUUU
DNA 1: GGGTCTGAGGGTGGAGGGACTGGGGGCC
DNA 2: GGCCCCCAGTCCCTCCACCCTCAGACCC
In turn, B4 showed an indel frequency of 30.1 % indels.

B5: VEGFA V54 (mixed)
RNA: GCUGUCCCCUCCUGAGCCCAUGGGUUGUAGCUCCCUUUCUCAUUUCGGAAACGAAAUGAGAACCGUUGCUACAAUAAGGCCGUCUGAAAAGAUGUGCCGCAACGCUCUGCCCCUUAAAGCUUCUGCUUUAAGGGGCAUCGUUUAUUUUUUU
DNA 1: CTGTCCCCTCCTGAGCCCATGGGCAACCAT
DNA 2: ATGGTTGCCCATGGGCTCAGGAGGGGACAG
The molecule B5 had an indel frequency of 37 % indels.

B6: GRIN2B G1 (mixed)
RNA: GCCCAUCAAGCUGGGCUCCAAGGGUUGUAGCUCCCUUUCUCAUUUCGGAAACGAAAUGAGAACCGUUGCUACAAUAAGGCCGUCUGAAAAGAUGUGCCGCAACGCUCUGCCCCUUAAAGCUUCUGCUUUAAGGGGCAUCGUUUAUUUUUUU
DNA 1: CCCATCAAGCTGGGCTCCAAGGAGGGCCAA
DNA 2: TTGGCCCTCCTTGGAGCCCAGCTTGATGGG
In the case of B6, the indel frequency is 18.6 % indels.

B7: VEGFA V18 (mixed)
RNA: GAGGGGGGUGCCGAGGACCGAAGGUUGUAGCUCCCUUUCUCAUUUCGGAAACGAAAUGAGAACCGUUGCUACAAUAAGGCCGUCUGAAAAGAUGUGCCGCAACGCUCUGCCCCUUAAAGCUUCUGCUUUAAGGGGCAUCGUUUAUUUUUUU
DNA 1: AGGGGGGTGCCGAGGACCGAAGGGCACCAA
DNA 2: TTGGTGCCCTTCGGTCCTCGGCACCCCCCT
The molecule B7 showed an indel frequency of 16.7 % indels.

B8: VEGFA V60 (mixed)
RNA: B7 RNA with G3A, G7U, U9A, C11U, G13U, A14C, G15A, A17G, G20A, A21C
DNA 1: AAGGGTGAGTCTCAGGCCACAGGGACCCAA
DNA 2: TTGGGTCCCTGTGGCCTGAGACTCACCCTT
B8 returned an indel frequency of 12.1 % indels.

B9: AAVS1 A4 (mixed)
RNA: GCUCUGACCUGCAUUCUCUCCCCGUUGUAGCUCCCUUUCUCAUUUCGGAAACGAAAUGAGAACCGUUGCUACAAUAAGGCCGUCUGAAAAGAUGUGCCGCAACGCUCUGCCCCUUAAAGCUUCUGCUUUAAGGGGCAUCGUUUAUUUUUUU
DNA 1: CTCTGACCTGCATTCTCTCCCCTGGGCC
DNA 2: GGCCCAGGGGAGAGAATGCAGGTCAGAG
As for B9, the indel frequency was found to be 6.61 % indels.

B10: VEGFA V21 (mixed)
RNA: GUCUCGAGGUAGCCCCAGCCCGGGUUGUAGCUCCCUUUCUCAUUUCGGAAACGAAAUGAGAACCGUUGCUACAAUAAGGCCGUCUGAAAAGAUGUGCCGCAACGCUCUGCCCCUUAAAGCUUCUGCUUUAAGGGGCAUCGUUUAUUUUUUU
DNA 1: TCTCGAGGTAGCCCCAGCCCGGGGATCCAG
DNA 2: CTGGATCCCCGGGCTGGGGCTACCTCGAGA
With B10, the indel frequency was found to be 19 % indels.

B11: GRIN2B G5 (mixed)
RNA: GUUUACAAUGAGAGACAAUACUGGUUGUAGCUCCCUUUCUCAUUUCGGAAACGAAAUGAGAACCGUUGCUACAAUAAGGCCGUCUGAAAAGAUGUGCCGCAACGCUCUGCCCCUUAAAGCUUCUGCUUUAAGGGGCAUCGUUUAUUUUUUU
DNA 1: TTTACAATGAGAGACAATACTGGCATCCAA
DNA 2: TTGGATGCCAGTATTGTCTCTCATTGTAAA
Molecule B11 displayed an indel frequency of 18.4 % indels.

B12: VEGFA V36 (mixed)
RNA: GAGGAAACGACCUGGGACCACCUGUUGUAGCUCCCUUUCUCAUUUCGGAAACGAAAUGAGAACCGUUGCUACAAUAAGGCCGUCUGAAAAGAUGUGCCGCAACGCUCUGCCCCUUAAAGCUUCUGCUUUAAGGGGCAUCGUUUAUUUUUUU
DNA 1: AGGAAACGACCTGGGACCACCTGTTCCCAA
DNA 2: TTGGGAACAGGTGGTCCCAGGTCGTTTCCT
In the case of B12, the indel frequency worked out at 14.6 % indels.

B13: AAVS1 A46 (mixed)
RNA: GAAGCCUGAGCGCCUCUCCUGGGGUUGUAGCUCCCUUUCUCAUUUCGGAAACGAAAUGAGAACCGUUGCUACAAUAAGGCCGUCUGAAAAGAUGUGCCGCAACGCUCUGCCCCUUAAAGCUUCUGCUUUAAGGGGCAUCGUUUAUUUUUUU
DNA 1: AAGCCTGAGCGCCTCTCCTGGGCTTGCCAA
DNA 2: TTGGCAAGCCCAGGAGAGGCGCTCAGGCTT
Turning to B13, the indel frequency is 14.9 % indels.

B14: AAVS1 A2 (mixed)
RNA: GUCAGCAUAGGGUGGCAAAGCCCGUUGUAGCUCCCUUUCUCAUUUCGGAAACGAAAUGAGAACCGUUGCUACAAUAAGGCCGUCUGAAAAGAUGUGCCGCAACGCUCUGCCCCUUAAAGCUUCUGCUUUAAGGGGCAUCGUUUAUUUUUUU
DNA 1: TCAGCATAGGGTGGCAAAGCCCAGGGCC
DNA 2: GGCCCTGGGCTTTGCCACCCTATGCTGA
B14: the indel frequency was 14.1 % indels.

B15: AAVS1 A33 (mixed)
RNA: GUGAGAAUGGUGCGUCCUAGGUGGUUGUAGCUCCCUUUCUCAUUUCGGAAACGAAAUGAGAACCGUUGCUACAAUAAGGCCGUCUGAAAAGAUGUGCCGCAACGCUCUGCCCCUUAAAGCUUCUGCUUUAAGGGGCAUCGUUUAUUUUUUU
DNA 1: TGAGAATGGTGCGTCCTAGGTGTTCACCAG
DNA 2: CTGGTGAACACCTAGGACGCACCATTCTCA
For B15, the indel frequency was 17.1 % indels.

B16: AAVS1 A7 (mixed)
RNA: GUCUGUCCCCUCCACCCCACAGUGUUGUAGCUCCCUUUCUCAUUUCGGAAACGAAAUGAGAACCGUUGCUACAAUAAGGCCGUCUGAAAAGAUGUGCCGCAACGCUCUGCCCCUUAAAGCUUCUGCUUUAAGGGGCAUCGUUUAUUUUUUU
DNA 1: TCTGTCCCCTCCACCCCACAGTGGGGCC
DNA 2: GGCCCCACTGTGGGGTGGAGGGGACAGA
Turning to B16, the indel frequency turned out to be 17.4 % indels.

B17: VEGFA V17 (mixed)
RNA: B16 RNA with U2C, U4G, U6G, C7A, C16U, A19U, A21C, G22U, U23G
DNA 1: CCGGGACCCTCCACTCCTCCTGGGCCCCAA
DNA 2: TTGGGGCCCAGGAGGAGTGGAGGGTCCCGG
Molecule B17 registered an indel frequency of 11.6 % indels.

B18: AAVS1 A59 (mixed)
RNA: GCUGGGACUUGGCCAGACACUGGUUGUAGCUCCCUUUCUCAUUUCGGAAACGAAAUGAGAACCGUUGCUACAAUAAGGCCGUCUGAAAAGAUGUGCCGCAACGCUCUGCCCCUUAAAGCUUCUGCUUUAAGGGGCAUCGUUUAUUUUUUU
DNA 1: GCTGGGACTTGGCCAGACACTGAGGTCCAG
DNA 2: CTGGACCTCAGTGTCTGGCCAAGTCCCAGC
Turning to B18, the indel frequency came out at 16.7 % indels.

B19: AAVS1 A30 (mixed)
RNA: GAGGGAGGAGAGAUGCCCGGAGAGUUGUAGCUCCCUUUCUCAUUUCGGAAACGAAAUGAGAACCGUUGCUACAAUAAGGCCGUCUGAAAAGAUGUGCCGCAACGCUCUGCCCCUUAAAGCUUCUGCUUUAAGGGGCAUCGUUUAUUUUUUU
DNA 1: AGGGAGGAGAGATGCCCGGAGAGGACCCAG
DNA 2: CTGGGTCCTCTCCGGGCATCTCTCCTCCCT
B19 returned an indel frequency of 12.9 % indels.
